The nanobody polyreactivity screen of Harvey et al. (2022)

Assay: yeast display, Sf9 membrane polyspecificity reagent, FACS + sequencing; frameworks hold sequencing errors
How it was run: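 In a synthetic yeast display library (Saccharomyces cerevisiae BJ5465), nanobody expression was induced with galactose for 36–48 hours. FACS gates were set low and high (top ~1%) using anti-HA fluorescence for expression and streptavidin fluorescence for binding of the Sf9 membrane reagent. Each polyreactivity label is drawn from the gate of origin.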

QVQLVESGGGLVQAGGSLRLSCAASGSIFNSNAMGWYRQAPGKERELVAVISWSDGSTRYADSVKGRFTISRDNAKNTVYLQMNSLKPEDTAVYYCNADLVYYYRQEVDYWGQGTEVTVSS
polyreactivity (PSR sort gate): low polyreactivity

QVQLVESGGGLVQAGGSLRLSCAASGSIFNSNAMGWYRQAPGTERELDAGISNIGGSTYYADSVKGRFTISRDYAKNTVYLQMNSLKPEDTAVYFCNADRLQPNRYYYWGQGTQVTVSS
polyreactivity (PSR sort gate): high polyreactivity

QVQLVESGGGLVQAGGSLRLSCAASGSIFNSYAMGWYIQAPGKERELFADITSSGGSTYYADSVKGRFTISRDNAKNTVYLQMNCLKPEDTAVYYCAASSPAFYGLRYNYWGQGTQVTVSS
polyreactivity (PSR sort gate): low polyreactivity

QVQLVESGGGLVQAGGSLRLSCAASGSIFNTYAMGWYRQAPGKEREFVASISRSGGSTRYADSVKGRFTISRDNAKNTVYLQMNSLKPEDTAVYYCAARVPRGHVTYDYWGQGTQVTVSS
polyreactivity (PSR sort gate): high polyreactivity

QVQLVESGGGLVQAGGSLRLSCAASGSIFNVYVMGWYRQAPGKERELVASITWTTGSTYADSVKGRFTISRDNAKNTVYLQMNSLKPEDTAVYYCNAEFPEDTSDDYWGQGTQVTVSS
polyreactivity (PSR sort gate): low polyreactivity

QVQLVESGGGLVQAGGSLRLSCAASGSIFNWYAMGWYIQAPGKERELVAAISSSGSTNYADSVKGRFTISRDNAKNTVYLQMNSLKPEDTEVYYCNADEYYLNNYNYGYWGQGTQVTVSS
polyreactivity (PSR sort gate): low polyreactivity

QVQLVESGGGLVQAGGSLRLSCAASGSIFNWYAMGWYRKAPGKERELVAAIRSGGNTKYADSVKGRFTISRDNAKNTVYLQMTSLKPEDTAVYYCAAGVYHRRLEYYYWGQGSQVTVSS
polyreactivity (PSR sort gate): low polyreactivity

QVQLVESGGGLVQAGGSLRLSCAASGSIFNYNAMGWYRQAPGKERELVAAISSGGSTNYADSVKGRFTISRDNAKNTVYLQMNSLKPEDTAVYYCAKRGKQYRKMNYWGQGTQVTVSS
polyreactivity (PSR sort gate): high polyreactivity

QVQLVESGGGLVQAGGSLRLSCAASGSIFNYNDMGWYRQAPGKERELVAAIDSSGTSTYYADSVKGRFTISRDNAKNTVYLQMNSLKPEDTAVYYCNADSSLGFGYWGQGTQVTVSS
polyreactivity (PSR sort gate): low polyreactivity

QVQLVESGGGLVQAGGSLRLSCAASGSIFNYYAMGWYRQAPGKERELVAAITTSGGRTYYADSVKGRFTISRDNAKNTVYLQMNSLKPEDTAVYYCAARGYGRRAYVYRYDYWGQGTQVTVSS
polyreactivity (PSR sort gate): high polyreactivity

QVQLVESGGGLVQAGGSLRLSCAASGSIFNYYDMGWYRQAPGKERELVAAIDLTGGTTYYADSVKGRFTISRDNAKNTVYLQMNSLKPEDTAVYYCAAQYIRSSWWGYDYWGQGTQVTVSS
polyreactivity (PSR sort gate): low polyreactivity

QVQLVESGGGLVQAGGSLRLSCAASGSIFPAYAMGWYRQAPGKERELVAAITFSGGRTYYADSVKGRFTISRDNAKNTVYLQMNSLKPEDTAVYYCAAYGAPSGTGAKYGYWGQGTQVTVSS
polyreactivity (PSR sort gate): low polyreactivity

QVQLVESGGGLVQAGGSLRLSCAASGSIFPAYAMGWYRQAPGKERELVAAITRGGRTNYADSVKGRFTISRDNAKNSVYLQMNSLKPEDTAVYYCAKAVQGKYGYWGQGTQVTVSS
polyreactivity (PSR sort gate): high polyreactivity

QVQLVESGGGLVQAGGSLRLSCAASGSIFPDNAMGWYRQAPGKERELVAAISLSGGRTYYADSVKGRFTISRDNAKNTVYLQMNSLKPEDTAVYYCAAKQRPKSYGPGHYYWGQGTQVTVSS
polyreactivity (PSR sort gate): high polyreactivity

QVQLVESGGGLVQAGGSLRLSCAASGSIFPDYAMGWYRQAPGKERELVAAITWRDDSSYYADSVKGRFTISRDNAKNTVYLQMNSLKPEDTAVYYCNASALDPLYAKDDYWGQGTQVTVSS
polyreactivity (PSR sort gate): low polyreactivity

QVQLVESGGGLVQAGGSLRLSCAASGSIFPFYAMGWYRQAPGKERELVAAISYSGGRTYYADSVKGRFTISRDNAKNTVYLQMNSLKPEDTAVYYCAVDSGQKRRDYWGQGTQVTVSS
polyreactivity (PSR sort gate): high polyreactivity

QVQLVESGGGLVQAGGSLRLSCAASGSIFPGYAMGWSRPAPGKERELVAAISRDGSTNYADSVKGRFTISRDNAKITVYLQMNSLKPEDTAVYYCARRNPLGGNEHDYWGQGTQVTVSS
polyreactivity (PSR sort gate): low polyreactivity

QVQLVESGGGLVQAGGSLRLSCAASGSIFPGYAMGWYRQAPGKERELVAGITWSDARTYYADSVKGLFTISRDNAKNTVYLQMNSLKPEDTAVYYCAADYYYYERDYWGQGTQVTVSS
polyreactivity (PSR sort gate): low polyreactivity

QVQLVESGGGLVQAGGSLRLSCAASGSIFPIYAMGWSRQPPGKESELVAPISRGGSTNYADSVKGRFTISRDNAKNTVYLQMNSLKPEDTAVYYCAAQSRVFSTWGSTGEYYYWGQGTQVTVSS
polyreactivity (PSR sort gate): low polyreactivity

QVQLVESGGGLVQAGGSLRLSCAASGSIFPKYAMGWYRQAPGKERELVAGISRSGGITHYADSVKGRFTISRDNAKNTVYLQMNSLKPEDTAVYYCAALWARALSYYYWGQGTQVTVSS
polyreactivity (PSR sort gate): high polyreactivity

QVQLVESGGGLVQAGGSLRLSCAASGSIFPQNAMAWYRQAPGKERELVASISSGGRTNYADSVKGRFTISRDNAKNTVYLQMNSLKPEDTAVYYCNARYRGYYGPKTHGVTYYYWGQGTQVTVSS
polyreactivity (PSR sort gate): low polyreactivity

QVQLVESGGGLVQAGGSLRLSCAASGSIFPRYAMGWYRQAPGKERELVAGITSGGITYYADSVKGRFTISRDNAKNTVYLQLNSLKPEDTAVYYCAAVYYLVPGNYWGQGTQVTVSS
polyreactivity (PSR sort gate): high polyreactivity

QVQLVESGGGLVQAGGSLRLSCAASGSIFPSYAIGWYRQAPGKERELVATIGRGGTTNYADSVKGRFTISRDNAKNTVYLQMNSLKPEDTSVYYCNAERIWRYKYGYDYWGQGTQVTVSS
polyreactivity (PSR sort gate): high polyreactivity

QVQLVESGGGLVQAGGSLRLSCAASGSIFPSYAMGWFRQAPRKERELVAAISRSAGSTYYADSVKGRFTISRDNAKNTVYLQMNSLKPEDTAVYYCAADGYSSRYRFDYWGQGTQVTVSS
polyreactivity (PSR sort gate): low polyreactivity

QVQLVESGGGLVQAGGSLRLSCAASGSIFPSYAMGWYRPAPGTERELVAAISVSGGRTSYADSVKGRFTISRDNAKNTVYLQMNSLKPEDTAVYYCAVRSWSGYGLYNYWAQGTQVTVSS
polyreactivity (PSR sort gate): high polyreactivity

QVQLVESGGGLVQAGGSLRLSCAASGSIFPSYAMGWYRQAPGKERELVAAISRSAGSTYYADSVKGRFTISRDNAKNTVYLQMNSLKPEDTAVYYCAAEGYSSRYRYDYWGQGTQVTVSS
polyreactivity (PSR sort gate): low polyreactivity

QVQLVESGGGLVQAGGSLRLSCAASGSIFPSYARGWYRQAPGKERELVAAINWDGGSTFYADSVKGRFTISRDNAKNTVSLQMNSLKPEDTAVYYCAAPDNYGGVGGITFWRMDYWGQGTQVTVSS
polyreactivity (PSR sort gate): low polyreactivity

QVQLVESGGGLVQAGGSLRLSCAASGSIFPTNAMGWYRQAPGKERELVAAITSTAGSTYYADSVKGRFTISRDNAKNSVYLQMNSLKPEDTAVYYCAATYKVGVKSWYDYWGQGTQVTVSS
polyreactivity (PSR sort gate): high polyreactivity

QVQLVESGGGLVQAGGSLRLSCAASGSIFPTYAMGWYRQAPGKERELVAAIRSGSNTYYADSLKGRFTISRDNAKNTDYLQMNCLKPEDTAVYYCNVGPQRKYPGRRTVPFGYWGQGTQVTVSS
polyreactivity (PSR sort gate): low polyreactivity

QVQLVESGGGLVQAGGSLRLSCAASGSIFPVYAMGWYRQAPGKERELVAAISSRGGRTYYADSVKGRFTISRDNAKNTVYLQMNSLKPEDTAVYYCAAVPYPSYYDTGYDYWGQGTQVTVSS
polyreactivity (PSR sort gate): low polyreactivity

QVQLVESGGGLVQAGGSLRLSCAASGSIFPVYAMGWYRQAPGKERELVATITGSGDSTYADSVKGRFTISRDNAKNTVYLQMNSLKPEDTAVYYCAATTDRAEDDDNIGGYWGQGTQVTVSS
polyreactivity (PSR sort gate): low polyreactivity

QVQLVESGGGLVQAGGSLRLSCAASGSIFPVYAMGWYRQSPGKERELVADITYTTGSTYYADSVKGRFTISRDNAKNTVYLQMNSLKPEDSAVYYCAKDFGFQSDSWGQGTQVTVSS
polyreactivity (PSR sort gate): low polyreactivity

QVQLVESGGGLVQAGGSLRLSCAASGSIFPVYTMGWYRQAPGKERELVADIDSGGSTNYADSVKGRFTISRDNAKNTVYLQMNSLKPEVTAVYDCAADYYYYFYSLYIDPYAFDYWGLGTQVTVSS
polyreactivity (PSR sort gate): low polyreactivity

QVQLVESGGGLVQAGGSLRLSCAASGSIFPWYAMGWYRQAPGKERELVAAITISGGSTHYADSEKGRFTISRDTAKNTVYLQLKSLKPEDTAVYYCAADFLPQSYNCYDYWGQGTQVTVSS
polyreactivity (PSR sort gate): low polyreactivity

QVQLVESGGGLVQAGGSLRLSCAASGSIFPWYTMGWYRQAPGKEREFVASISSSASDTYYADSVKGRFTISRDNAKNTVYLQMNSLKPEDTAVYYCAARAYYRYWHGNYRHYSFDYWGQGTQVTVSS
polyreactivity (PSR sort gate): high polyreactivity

QVQLVESGGGLVQAGGSLRLSCAASGSIFPWYVMGWYRQAPGKERELVAAISWNGGITYADSVKGRFTISRDNAKNTVYLQMNSLKPEDTGVYYCAAYYITYSYIEYDYWGQGTQVSVSS
polyreactivity (PSR sort gate): high polyreactivity

QVQLVESGGGLVQAGGSLRLSCAASGSIFPYNAMGWYRQAPGKERELVAAIRFGGGSTYYSDSVKGRFTISRDNAKNTVYLQMNSLKPEDTAVYYCAAQVLQSAYLPFRFGYYYWGLGTQVTVSS
polyreactivity (PSR sort gate): low polyreactivity

QVQLVESGGGLVQAGGSLRLSCAASGSIFPYNAMGWYRQAPGKERELVAAITQSGGSTYYADSVKGRFTISRDNAKNTVYLQMNSLQPEDTAVYYCAADDYGPEGDYWGQGTQVTVSS
polyreactivity (PSR sort gate): low polyreactivity

QVQLVESGGGLVQAGGSLRLSCAASGSIFPYNDMGWYRQAPGKERELVAAISDSAGSTYYADSVKGRFTISRDNAKNTVYLQMNSLKPEDTAVYYCAADSWDSQVVSYEYWGQGTQVTVSS
polyreactivity (PSR sort gate): low polyreactivity

QVQLVESGGGLVQAGGSLRLSCAASGSIFPYNVMGWYRPAPGQERELVAANTTGGRTNYADSVKGRFTISRDNAKNTVYLQMNSLKPEDTAVYYCAARYGYYDSRRWYYYSGQGTQVTVSS
polyreactivity (PSR sort gate): high polyreactivity

QVQLVESGGGLVQAGGSLRLSCAASGSIFPYNVMGWYRQAPGKERELVAAISTRGGRTYYADSVKGRFTISRDNAKNTVYLQMNSLNPEDTAVYYCATAGGPYSASGYYWGQGTKVTVSS
polyreactivity (PSR sort gate): high polyreactivity

QVQLVESGGGLVQAGGSLRLSCAASGSIFPYNVMGWYRQAPGKERELVAAITRRGGSTYYADSVKGRFTISRDNAKNTVYLQMNSLKPEDTAVYYCAAVPYPRGKGYDYWGQGTQVTVSS
polyreactivity (PSR sort gate): high polyreactivity

QVQLVESGGGLVQAGGSLRLSCAASGSIFPYYAMGWYRPAPGKERELVAGITSGTRTNYADSVKGRFTISRDNAKNTVYLQMNSLKPEDTAVYYCAAYYRAYRRDYYWGQGTQVTVSS
polyreactivity (PSR sort gate): high polyreactivity
